Literature values as cited in patent publication US20180185417.

Molecular target: CD31 (PECAM-1) (Homo sapiens) (UniProt P16284)
Conditions: CITED reported affinity of the commercial aptamer (1.14×10−9 M), method not stated

**Q.** Which Kd does the source give for CD31 aptamer (APTSCI CD31-2196BCI) here?
**A.** 1.14 nM
